Values quoted from earlier work in article PMC9772450, “Gel-forming antagonist provides a lasting effect on CGRP-induced vasodilation” (Frontiers in Pharmacology, 2022).

Experiments:
[1] = antibodies; ref https://go.drugbank.com/drugs
[2] = test system: capsaicin-induced dermal blood flow; conditions: in patients; ref Vu et al., 2017
Text: It is known that anti-CGRP gepants could occupy a binding site close to the interface of the N-terminal domains of CLR and RAMP1, and act by allosteric regulation ([Miller et al., 2010]). Although the gepants compounds have low IC50 values in receptor activation assays in vitro, it is well documented that gepants need high concentrations to bloc ...

migraine = conditions: 31% at baseline; 40–50% in the placebo group; ref Cady et al., 2022
Text: Migraine is a common complex neurovascular disorder that is manifested as episodic and predominantly unilateral throbbing headache with hypersensitivity to light, sound, and movement ([Erdener and Dalkara, 2014]; [Schuster and Rapoport, 2016]). According to the World Health Organization, 324 million people worldwide suffer from incapacitating migraine in 2008. In ∼ one-third of patients, migraine headaches are accompanied by an aura involving neurological symptoms such as transient visual, sensory, or motor disturbances ([Goadsby et al., 2002]). In the US, it was reported that 15% of Americans ...

B1: erenumab: anti-CGRP receptor antibody (antibody, chains of the INN, looked up, V domains shown)
VH: QVQLVESGGGVVQPGRSLRLSCAASGFTFSSFGMHWVRQAPGKGLEWVAVISFDGSIKYSVDSVKGRFTISRDNSKNTLFLQMNSLRAEDTAVYYCARDRLNYYDSSGYYHYKYYGMAVWGQGTTVTVSS
VL: QSVLTQPPSVSAAPGQKVTISCSGSSSNIGNNYVSWYQQLPGTAPKLLIYDNNKRPSGIPDRFSGSKSGTSTTLGITGLQTGDEADYYCGTWDSRLSAVVFGGGTKLTVL
[1]
  Volume of distribution: 3.86 L
[2]
  Concentration required for 50% inhibition of capsaicin-induced dermal blood flow: 0.255 mg/L
  Concentration required for 99% inhibition of capsaicin-induced dermal blood flow: 1.134 mg/L

B2: eptinezumab: anti-CGRP antibody (antibody, chains of the INN, looked up, V domains shown)
VH: EVQLVESGGGLVQPGGSLRLSCAVSGIDLSGYYMNWVRQAPGKGLEWVGVIGINGATYYASWAKGRFTISRDNSKTTVYLQMNSLRAEDTAVYFCARGDIWGQGTLVTVSS
VL: QVLTQSPSSLSASVGDRVTINCQASQSVYHNTYLAWYQQKPGKVPKQLIYDASTLASGVPSRFSGSGSGTDFTLTISSLQPEDVATYYCLGSYDCTNGDCFVFGGGTKVEIK
migraine
  Proportion of patients with moderate/maximal optimization at week four: 58%

B3: galcanezumab: anti-CGRP antibody (antibody, chains of the INN, looked up, V domains shown)
VH: QVQLVQSGAEVKKPGSSVKVSCKASGYTFGNYWMQWVRQAPGQGLEWMGAIYEGTGKTVYIQKFADRVTITADKSTSTAYMELSSLRSEDTAVYYCARLSDYVSGFGYWGQGTTVTVSS
VL: DIQMTQSPSSLSASVGDRVTITCRASKDISKYLNWYQQKPGKAPKLLIYYTSGYHSGVPSRFSGSGSGTDFTLTISSLQPEDFATYYCQQGDALPPTFGGGTKVEIK
[1]
  Volume of distribution: 7.3 L
